This passage reports stoichiometry N and binding results from publication PMC7830388.

Series [1] has as its target CopR (PF0739), copper-sensing transcriptional regulator of Pyrococcus furiosus (Pyrococcus furiosus). The series can be described thus: SEC; Superdex 200 10/300 GL in low salt buffer (40 mM HEPES pH 7.5, 80 mM ammonium sulfate, 1 mM EDTA, 10% glycerol); elution compared to standard calibration proteins. A general note: Size exclusion chromatography separates by hydrodynamic size, large species first.

The target of series [2] is CopRΔTRASH (PF0739 variant lacking the metal-sensing TRASH domain) (Pyrococcus furiosus). The series can be described thus: negative-stain transmission electron microscopy with 2D class averaging; 220 ng/μl protein, 2% uranyl acetate with 0.005% DDM; more than 50,000 particles classified in RELION 3.0; in the absence and presence of a DNA template.
In series [3] the target is T1, CopRΔTRASH internal_change (Pyrococcus furiosus) (UniProt Q8U2U0).
T1 sequence: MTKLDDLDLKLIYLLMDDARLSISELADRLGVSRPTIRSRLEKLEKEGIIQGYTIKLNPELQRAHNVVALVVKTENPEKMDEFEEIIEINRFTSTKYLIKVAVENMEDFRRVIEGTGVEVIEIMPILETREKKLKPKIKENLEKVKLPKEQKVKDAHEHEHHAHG
The series can be described thus: EMSA. Conditions: EMSA: 20 nM DNA, 40 mM HEPES pH 7.4, 80 mM (NH4)2SO4, 670 uM DTT, 20 ug/ml BSA, 6.7% glycerol, 50 ng HindIII-digested lambda DNA, 5 min 70 C; DNase I: 4.4 nM …. A general note: A gel shift assay detects complexes by their altered migration in electrophoresis.

Series [4] addresses T2, CopRΔHIS (Pyrococcus furiosus) (UniProt Q8U2U0).
T2 sequence: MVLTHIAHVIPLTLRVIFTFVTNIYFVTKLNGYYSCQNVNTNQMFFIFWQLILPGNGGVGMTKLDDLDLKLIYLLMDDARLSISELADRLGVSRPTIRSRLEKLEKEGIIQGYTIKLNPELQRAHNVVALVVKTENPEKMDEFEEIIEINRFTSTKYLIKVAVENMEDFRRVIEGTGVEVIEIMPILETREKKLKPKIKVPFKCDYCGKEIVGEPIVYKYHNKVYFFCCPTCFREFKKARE
Kind of series: EMSA. The following applies: EMSA: 20 nM DNA, 40 mM HEPES pH 7.4, 80 mM (NH4)2SO4, 670 uM DTT, 20 ug/ml BSA, 6.7% glycerol, 50 ng HindIII-digested lambda DNA, 5 min 70 C; DNase I: 4.4 nM ….

The target of series [5] is T3, CopRΔHISΔTRASH (Pyrococcus furiosus) (UniProt Q8U2U0).
T3 sequence: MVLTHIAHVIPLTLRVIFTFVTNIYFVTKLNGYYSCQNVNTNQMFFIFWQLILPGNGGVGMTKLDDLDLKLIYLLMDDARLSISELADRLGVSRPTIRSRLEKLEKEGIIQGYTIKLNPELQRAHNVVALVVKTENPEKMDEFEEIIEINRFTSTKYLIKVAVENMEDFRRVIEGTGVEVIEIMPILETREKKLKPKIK
The series can be described thus: EMSA. Conditions: EMSA: 20 nM DNA, 40 mM HEPES pH 7.4, 80 mM (NH4)2SO4, 670 uM DTT, 20 ug/ml BSA, 6.7% glycerol, 50 ng HindIII-digested lambda DNA, 5 min 70 C; DNase I: 4.4 nM ….

For series [6], the target named is T4, CopR (Pyrococcus furiosus) (UniProt Q8U2U0).
T4 sequence: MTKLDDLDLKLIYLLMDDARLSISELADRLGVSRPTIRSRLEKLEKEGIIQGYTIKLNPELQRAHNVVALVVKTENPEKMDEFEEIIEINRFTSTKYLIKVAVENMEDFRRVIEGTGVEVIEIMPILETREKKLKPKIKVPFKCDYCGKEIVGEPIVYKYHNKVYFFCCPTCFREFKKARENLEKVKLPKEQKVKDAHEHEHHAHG
The series can be described thus: EMSA. Conditions: EMSA: 20 nM DNA, 40 mM HEPES pH 7.4, 80 mM (NH4)2SO4, 670 uM DTT, 20 ug/ml BSA, 6.7% glycerol, 50 ng HindIII-digested lambda DNA, 5 min 70 C; DNase I: 4.4 nM ….

Series [7] addresses T5, TBP;TFB (Pyrococcus furiosus?;Pyrococcus furiosus?) (UniProt P62000+P61998).
T5 sequence 1: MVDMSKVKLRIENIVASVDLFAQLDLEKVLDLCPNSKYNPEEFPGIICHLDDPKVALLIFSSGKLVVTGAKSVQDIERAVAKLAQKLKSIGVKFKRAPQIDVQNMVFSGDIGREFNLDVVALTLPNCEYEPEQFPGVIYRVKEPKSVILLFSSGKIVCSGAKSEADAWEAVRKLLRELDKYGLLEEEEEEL
T5 sequence 2: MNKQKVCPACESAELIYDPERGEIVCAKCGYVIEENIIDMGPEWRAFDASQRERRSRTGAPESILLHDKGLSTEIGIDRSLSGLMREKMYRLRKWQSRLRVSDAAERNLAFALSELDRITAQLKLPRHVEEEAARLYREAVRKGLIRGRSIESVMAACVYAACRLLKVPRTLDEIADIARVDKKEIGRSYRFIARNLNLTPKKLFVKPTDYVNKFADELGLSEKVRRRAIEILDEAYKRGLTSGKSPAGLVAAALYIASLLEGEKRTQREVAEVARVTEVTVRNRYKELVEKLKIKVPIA
The series can be described thus: DNase I footprinting. The following applies: EMSA: 20 nM DNA, 40 mM HEPES pH 7.4, 80 mM (NH4)2SO4, 670 uM DTT, 20 ug/ml BSA, 6.7% glycerol, 50 ng HindIII-digested lambda DNA, 5 min 70 C; DNase I: 4.4 nM ….

The target in series [8] is T4, CopR (Pyrococcus furiosus). Kind of series: DNase I footprinting. Conditions: EMSA: 20 nM DNA, 40 mM HEPES pH 7.4, 80 mM (NH4)2SO4, 670 uM DTT, 20 ug/ml BSA, 6.7% glycerol, 50 ng HindIII-digested lambda DNA, 5 min 70 C; DNase I: 4.4 nM ….

Regarding “CopR (PF0739), copper-sensing transcriptional regulator of Pyrococcus furiosus (natural protein)”, the stoichiometry N in series [1] is 8.
In the case of “CopRΔTRASH (PF0739 variant lacking the metal-sensing TRASH domain) (natural protein)”, the stoichiometry N in series [2] was 8.
Consider “GAGTGATCTTCACTTTCGTCACCAATATTTACTTTGTGACGAAACTTAATGGGTATTATTCATGCCAAAATGTAAACACTAACCAAATGTTTTTTATATTTTGGCAACTAATACTCCCAGGGAATGGGGGTGTTGGAATGACCAAGTTAGATG (double strand) [copR/copA intergenic promoter region (EMSA)]”, for which the binding result in series [3], in series [4], in series [5] and in series [6] was “binds” in each case.
Regarding “GAGTGATCTTCACTTTCGTCACCAATATTTACTTTGTGACGAAACTTAATGGGTATTATTCATGCCAAAATGTAAACACTAACCAAATGTTTTTTATATTTTGGCAACTAATACTCCCAGGGAATGGGGGTGTTGGAATGACCAAGTTAGATG (double strand) [copR/copA promoter region (DNase I footprint)]”, the binding result in series [7] and in series [8] was “binds” throughout.

As a reminder, the stoichiometry N is a count of units in the complex or per binding partner.
